# Measurements as given in patent publication US20100041074A1 (FORERUNNER PHARMA RESEARCH, published 2010).
# Key:
# [1] = target: T1, GRP78 expressed in human cells (cell lysate) (human, UniProt P11021 19-654); experiment: western blot of cell lysates of human cell lines with GD-17 antibody (2 µg/ml)
# T1 construct: Endogenous GRP78 in lysates of human cell lines (DU145, MRC5 and others) after SDS-PAGE and blotting; also called GRP78 expressed in DU145 cells; GRP78 protein in cell lysates
# [2] = target: T2, GRP78 expressed in mouse cells (Ba/F3, NIH3T3), cell lysate (mouse, UniProt P20029 20-655); experiment: western blot of cell lysates of mouse cell lines with GD-17 antibody (2 µg/ml)
# [3] = target: T3, GRP78 localized on the cell surface of human cancer cells (human, UniProt P11021 19-654); experiment: FACS on prostate cancer cell lines DU145 and 22Rv1, hybridoma culture supernatant
# T3 construct: Endogenous GRP78 on untransfected human cancer cell lines (DU145, 22Rv1, LoVo, LNcap, MCF7 and others); also called GRP78 on the surface of DU145 cells; surface-located GRP78
# MBP-GRP78 (376-415) = MBP-GRP78 (376-415) (human, UniProt G3I8R9 376-415 (Cricetulus griseus entry)); experiment: ELISA, plate coated with MBP-GRP78 (376-415) (1 µg/ml), hybridoma culture supernatant
# [4] = target: T3, GRP78 localized on the cell surface of …; experiment: FACS on DU145 cells, antibody 10 µg/ml
# [5] = target: T1, GRP78 expressed in human cells (cell …); experiment: western blot, DU145 cell lysate, antibody 2 µg/ml
# [6] = target: T4, GST fused GRP78 protein (GST-GRP78) purified from E. coli (human, UniProt P11021 19-654); experiment: western blot, GST fused GRP78 protein (0.1 ug), antibody 2 µg/ml
# T4 construct: also called GRP78-GST fused protein; not shown: glutathione S-transferase (GST) encoded by the E. coli expression vector pGEX-6P-1 (Amersham Pharmacia), with the vector
# GST-GRP78 (376-415) = target: T5, GST-GRP78 (376-415) (human, UniProt G3I8R9 376-415 (Cricetulus griseus entry)); experiment: western blot of GST fused GRP78 fragments (345-385, 376-415, 406-445)
# T5 construct: not shown: glutathione S-transferase (GST) encoded by the E. coli expression vector pGEX-6P-1, with the vector's linker
# [7] = target: GRP78 expressed in hamster ovary cells (DG44), cell lysate (hamster, UniProt G3I8R9 19-654); experiment: western blot of NP40 lysate of DG44 cells with GA-20 antibody (2 µg/ml)
# [8] = target: T2, GRP78 expressed in mouse cells (Ba/F3, …); experiment: western blot of NP40 lysates of Ba/F3 and NIH3T3 cells with GA-20 antibody (2 µg/ml)
# [9] = target: T6, GRP78 protein (amino acids 19-654) purified from E. coli (human, UniProt P11021 19-654); experiment: ELISA, plate coated with GRP78 protein purified from E. coli, hybridoma culture supernatant
# T6 construct: Cut from the GST fusion with PreScission Protease and gel filtered; also called glucose-regulated protein 78; BiP
# [10] = target: T4, GST fused GRP78 protein (GST-GRP78) …; experiment: ELISA, plate coated with GST-GRP78 (1 µg/ml), HisTrap fractions diluted 40-fold, anti-flag detection
# [11] = target: T3, GRP78 localized on the cell surface of …; experiment: cell-based or functional assay
# [12] = target: T4, GST fused GRP78 protein (GST-GRP78) …; experiment: ELISA, plate coated with GST-GRP78 (1 µg/ml), anti-flag detection; same value told for specimens stored at 4° C., left at 37° C. overnight, or frozen and thawed
binder,measurement,setting,value
"GD-17 antibody (antibody, IgG1, V domains shown, Mouse monoclonal from hybridoma, subtype G1 (IgG1)) VH: QVQLQQSGAELARPGASVKLSCKASGYTFTSYWMHWVKQRPGQGLEWIGAIYPGDGDTRYTQKFKGKATLTADKSSSTAYMQLSSLASEDSAVYYCASGITAVADYWGQGTTLTVSS VL: DVVMTQTPLSLPVSLGDQASISCRSSQSLVHSNGNTYLHWYLQKPGQSPKLLIYKVSNRFSGVPDRFSGSGSGTDFTLKISRVEAEDLGVYFCSQSTHVPLTFGAGTKLELK",binding result,[1],binds
same,binding result,[2],binds
same,binding result,[3],binds
same,binding result,MBP-GRP78 (376-415),binds
"GA-20 antibody (antibody, IgM, V domains shown, Mouse monoclonal from hybridoma, subtype M (IgM); light chain cloned with a kappa primer) VH: EVQLQQSGPELVKPGASVKISCKTSGYTFTEYTMHWVKQSHGKSLEWIGGINPNNGGTSYNQKFKGKATLTVDKSSSTAYMELRSLTSEDSAVYYCAREKYGNYYAMDYWGQGTSVTVSS VL: DIVMSQSPSSLAVSAGEKVTMSCKSSQSLLNSRTRKNYLAWYQQKPGQSPKLLIYWASTRESGVPDRFTGSGSGTDFTLTISSVQAEDLAVYYCKQSYNLRTFGGGTKLEIK",binding result,[4],binds
same,binding result,[5],binds
same,binding result,[6],binds
same,binding result,GST-GRP78 (376-415),binds
same,binding result,[7],binds
same,binding result,[8],binds
same,binding result,[9],binds
"GD-4 antibody (antibody, IgG1, V domains shown, Mouse monoclonal from hybridoma, subtype G1 (IgG1)) VH: EVQLVETGGGLVQPKGSLKLSCAASGFTFNTNAMNWVRQAPGKGLEWVARIRSKSNNYAAYYADSVKDRFTISRDDSQSMLYLQMNNLKTEDTAMYYCVREGYGYSLYFDYWGQGTTLTVSS VL: DIVMTQSPTFLAVTASKKVTINCTASESLYSSKHKVHYLAWYQKKPDQSPKLLIYGASNRYIGVPDRFTGSGSGTDFTLTISSVQVEDLTHYYCAQFYSYPLTFGAGTKLELK",binding result,[3],binds
same,binding result,MBP-GRP78 (376-415),binds
"GC-18 antibody (antibody, IgG1, V domains shown, Mouse monoclonal from hybridoma, subtype G1 (IgG1)) VH: DVRLQESGPGQVKPSQTVSLTCSVTGYSITNGNHWWNWIRQVSGSKLEWIGYISSSGSTDSNPSLKSRISITRDTSKNQLFLQLNSVTTEDIATYYCARGYYFDYWGQGTTLTVSS VL: DIVLTQSPASLAVSLGQSVTISCRASESVEYYGTSLMQWYQQKPGQPPKLLIYATSNVESGVPARFSGSGSGTDFSLNIHPVEEDDIAMYFCQQSRKLPSTFGGGTKLEIK",binding result,[3],binds
same,binding result,MBP-GRP78 (376-415),binds
"toxin-labeled GA-20 single-chain Fv antibody (GA20-PE40) (scFv, also called GA20scFv-PE40; toxin-labeled GA-20 scFv antibody) scFv: MDHHHHHHHHHHKLEVQLQQSGPELVKPGASVKISCKTSGYTFTEYTMHWVKQSHGKSLEWIGGINPNNGGTSYNQKFKGKATLTVDKSSSTAYMELRSLTSEDSAVYYCAREKYGNYYAMDYWGQGTSVTVSSGGGGSGGGGSGGGGSDIVMSQSPSSLAVSAGEKVTMSCKSSQSLLNSRTRKNYLAWYQQKPGQSPKLLIYWASTRESGVPDRFTGSGSGTDFTLTISSVQAEDLAVYYCKQSYNLRTFGGGTKLEIKEFGGAPEFPKPSTPPGSSGLEGGSLAALTAHQACHLPLETFTRHRQPRGWEQLEQCGYPVQRLVALYLAARLSWNQVDQVIRNALASPGSGGDLGEAIREQPEQARLALTLAAAESERFVRQGTGNDEAGAANADVVSLTCPVAAGECAGPADSGDALLERNYPTGAEFLGDGGDVSFSTRGTQNWTVERLLQAHRQLEERGYVFVGYHGTFLEAAQSIVFGGVRARSQDLDAIWRGFYIAGDPALAYGYAQDQEPDARGRIRNGALLRVYVPRSSLPGFYRTSLTLAAPEAAGEVERLIGHPLPLRLDAITGPEEEGGRLETILGWPLAERTVVIPSAIPTDPRNVGGDLDPSSIPDKEQAISALPDYASQPGKPPDYKDDDDKKDEL",binding result,[10],binds
"toxin-labeled GD17 single-chain antibody (GD17scFv-PE40) (scFv, also called GA17_scFv-PE40) scFv: MDHHHHHHHHHHKLQVQLQQSGAELARPGASVKLSCKASGYTFTSYWMHWVKQRPGQGLEWIGAIYPGDGDTRYTQKFKGKATLTADKSSSTAYMQLSSLASEDSAVYYCASGITAVADYWGQGTTLTVSSGGGGSGGGGSGGGGSDVVMTQTPLSLPVSLGDQASISCRSSQSLVHSNGNTYLHWYLQKPGQSPKLLIYKVSNRFSGVPDRFSGSGSGTDFTLKISRVEAEDLGVYFCSQSTHVPLTFGAGTKLELKEFGGAPEFPKPSTPPGSSGLEGGSLAALTAHQACHLPLETFTRHRQPRGWEQLEQCGYPVQRLVALYLAARLSWNQVDQVIRNALASPGSGGDLGEAIREQPEQARLALTLAAAESERFVRQGTGNDEAGAANADVVSLTCPVAAGECAGPADSGDALLERNYPTGAEFLGDGGDVSFSTRGTQNWTVERLLQAHRQLEERGYVFVGYHGTFLEAAQSIVFGGVRARSQDLDAIWRGFYIAGDPALAYGYAQDQEPDARGRIRNGALLRVYVPRSSLPGFYRTSLTLAAPEAAGEVERLIGHPLPLRLDAITGPEEEGGRLETILGWPLAERTVVIPSAIPTDPRNVGGDLDPSSIPDKEQAISALPDYASQPGKPPDYKDDDDKKDEL","cytotoxic activity, EC50 on MCF7 and 22Rv1 cells",[11],2 to 4 nM
same,EC50,[12],~1.3 nM
